Results on two molecules are retold here after patent publication US7595173B2, “Low-cost production of peptides” (Dow Global Technologies Inc., priority 2002, dated 2009).

The test system of this assay is E. coli strain BL21 (DE3). Put plainly: Antimicrobial activity: dose-dependent inhibition of E. coli growth (standard growth inhibition assay). It counts as cell-based. The protocol: The antimicrobial activity of the cleaved peptides (same samples from Examples 5 and 6) was determined by measuring the dose-dependent inhibition of E. coli growth. The samples were tested for their ability to inhibit the growth of an overnight culture inoculated with E. coli strain BL21 (DE3). AMP samples were diluted serially into water in 96 well plates. Overnight cultures of E. coli BL21 (DE3) cells were diluted 1:50 into LB broth and 250 μl aliquots were transferred into 96-well plates. Each plate was incubated at 37° C. for one hour and then 50 μl of diluted peptide (or water) were added to each well. Each plate was incubated overnight at 37° C. and then the culture density was determined by measuring the apparent absorbance at 600 nm using a Spectromax Plus plate reader.

B1: 4A dimer: dimer having two D2A21 antimicrobial peptides connected by the Gly-Asp/Pro cleavage sequence, with leader and His-tag trailer (protein)
chain: MASMTGGQQMGRDPFAKKFAKKFKKFAKKFAKFAFAFGDPFAKKFAKKFKKFAKKFAKFAFAFGDPNSSSVDKLAAALEHHHHHH
modifications: Amino acid sequence of the 4A dimer.
Turning to B1, the antimicrobial activity result is, setting by setting: (Ni-purified, dialyzed, uncleaved dimer) “no detectable antimicrobial activity”; (after 50% formic acid treatment, 70° C., 24 hours) “significant antimicrobial activity”; (water-treated (control), 70° C., 24 hours) “no activity”.

B2: AB4: trimer comprising a leader segment, three AMPs each separated by a tripeptide linker, and a trailer segment (protein)
chain: MASMTGGQQMGRDPFAKKFAKKFKKFAKKFAKFAFAFGDPFAKKFAKKFKKFAKKFAKFAFAFGDPFAKKFAKKFKKFAKKFAKFAFAFGDPSRRSLRKSSRNLPRSLPSSHSRSVIRIRAPSTSLRPHSSTTTTTTEIRLLTKPERKLSWLLPPLSNN
modifications: Amino acid sequence of the AB4 trimer.
Consider B2, for which the “antimicrobial activity of cleaved trimer” value (digested with formic acid at 60° C.) is reported as “potent antimicrobial activity”.
